# Assay results from patent US20250034594A1, “RNA-GUIDED GENOME RECOMBINEERING AT KILOBASE SCALE” (THE BOARD OF TRUSTEES OF THE LELAND STANFORD JUNIOR …, priority 2021, published 2025).
# B1: SSAP_315: SEQ ID NO: 484; Pseudoalteromonas spongiae (protein, listed as Pseudoalteromonas spongiae)
# chain: NKFQHLQTELSSQLLSTKERFNELNNKNNLKVNFEEEYNFFYHLVTSSFYNINGIATCTFSSLKEAFLNIAKYGLSINPKLNLCYIRTEQSCAQANVNIAVYDFGYKGLLKLITRTGKVKIVTADVFYENDNFEFRGTREPVKHSTKTLSAAARGAMAGGYCSSELVAGGVVTTIMTPEELREIESICQSTGNEAWNSVFIDELRRKTLIKRHWKTLMQVIEEQNLSVPIEETYQCDFANGGY
# B2: SSAP_132: SEQ ID NO: 301; Enterocloster clostridioformis (protein, listed as Enterocloster clostridioformis)
# chain: GIDVKHELEKRAAGQDKPVKLTRNMTIADMVKALEPEIKRALPAILTPERFTRMALSAVNNTPELANCTPMSFIAALMNAAQLGLEPNTPLGQAYLIPYKNKGTLECQFQLGYKGLIDLAYRTGQIQIIQAQAVREFDYFEYQYGLDSRLVHKPGNEERGQITFIYGLFKLSNGGYGFEVSNKAEMDAFAAKYSKSFGSKYSPWTEDYESMAKKTVIKRALKYAPVSSDFQKALSLDETVKSEIAVDMSEIRNDCIPADMGTEAA
# B3: SSAP_105: SEQ ID NO: 274; unclassified Lysinibacillus (protein, listed as Lysinibacillus sp.)
# chain: ATTTDLKAQMQQAPATQQKPKTIDDYLKQMAPAMAQALPKHMDVDRLMRLAMTTIRTTPALKDADVSSLLGAVMQAAQLGLEPGLMGHCYLLPFKNNKKGITEVQFIIGYKGMIDLARRSGHIQSIYAHAVYQKDEFEYELGLDPKLKHKPCMDEDKGNFVGAYAVAHFKDGGYQFEFMSKAEIEKRKGRSKAANSTYSPWATDYEEMAKKTVVRHMWKYLPISVEMQQQVAYDEGTAPKREMKDITPETEFFVDAPEIEVEVVNE
# B4: SSAP_113: SEQ ID NO: 282; Acinetobacter sp. RIT592 (protein, listed as Acinetobacter sp.)
# chain: ADLKNKLANKAAGTVTKTSPNAGMKQLMKSMSKEIEAALPSHMSSERFQRVALTAFGNNPKLMNCDPMSFIAAMMDSAQLGLEPNTPLGQAYLIPYGTKVQFQVGYKGLLELALRSGKIKTLYAHEVRENDTFEVKYGLHQDLIHEPVLKGNRGEVIGYYAVYHLDTGGHSFVFMTKDEVLEHAKGKSKTFNNGPWQTDFDAMAKKTVIKQLLKYAPLSIEMQKAVSSDETVKSKIDEDMSLVVDESDSIEANFEIKEDEDGQLDVYVK
# B5: SSAP_320: SEQ ID NO: 489; Pseudoalteromonas sp. MQS005 (protein, listed as Pseudoalteromonas sp.)
# chain: SISQQDYENLLYSKLYECESQYQAYLAEHNEKLNFNAELNYMYKAVMSGVGIEGGFPYTPLESIVESFLKAAKLGLSLDPSEQFCFLRSQYDHSTGLYHTELGLGYKGVLHLAYRSGKVKQIVSNVFYNKDNFQFNGPNSKVTHTMTVLSTSARGNLAGGYCQTELVDGSFIVTVMPPEEILAIEEQGKSVGNPAWLSAHVNQMREKTLILRHWKTLYPAIYSSSLLDSAQIFDDECEEFPFSSPSQGFSESQTIGSY
# B6: SSAP_249: SEQ ID NO: 418; environmental Halophage eHP-30 (protein)
# chain: TEQNQTPAKTESKSPIKAQLYKDNVQQRFQELLGERASAFMTSVMSVVKDNDQLSQAEPSSVLNAAMTAATLDMPIDNNLGMAYIVPYKDGKSGKTYAQFQLGYKGFIQLAQRSGQFKTISATPVRQGQIVTADPLRGYEFDFTQGQDKEVVGYAAYFALLNGFEKTLYMSKAEMEQHAASYAAGYKKGYSNWNRKFDEMALKTVIKQLLSKYAPLSVDMQKAQQTDQTVSVEEPNAIEQQEAAPEIDASSNNNQNQ
# modifications: environmental Halophage eHP-30
# B7: SSAP_95: SEQ ID NO: 264; Proteus terrae (protein, listed as Proteus terrae)
# chain: SNPPLAQADLQKTQGTEVREKTKDQMLVEFINKPNMKAQLAAALPRHMAPDRMIRIVTTEIRKTPELANCDMQSFVGAVVQCSQLGLEPGNALGHAYILPFEKKRKQGNQWVTVRTDAQLIIGYRGMIDLARRSGQIVSISARTVRQGDSFHFEYGLNENLTHVPGENEDSPITHVYAVARLKDGGVQFEVMTHNQIEKVRTSSKAGQNGPWVSHWEEMAKKTVIRRLFKYLPVSIEMQKAVILDEKAEANVDQENSSVFEGEFEEVGQGA
# B8: SSAP_265: SEQ ID NO: 434; Clostridium coskatii (protein, listed as Clostridium coskatii)
# chain: SDKKMVVLNESHTMLNKLLETKQEALPKDFNKARFLQNCMTVLQDTKGIEQCQPITVARTMLKGAFLGLDFFNKECYAIPYKDNLQFQTDYKGEIKLAKKYSFNPIKDIYAKIVRQGDDFQEAIINGQQTINFTPVPFNNGEIIGAFAVCLFQDGSMLYETMAKQEIENTRKNFSKAPNSPAWTKTPGEMYKKTVLRRLCKLIELDFDSVECKKVYNETSDFEFENQQHEVSNFDKKDIDEDKIVEADVEVQDDNENNVPEDGE
# B9: SSAP_234: SEQ ID NO: 403; Cellulosilyticum lentocellum (protein, listed as Cellulosilyticum lentocellum)
# chain: SDKKELVLKETHSRLNQLLATKMEAMPKDFNQTRFLQNCMTVLQDTKGIENCHPVSIARTLLKGAFLGLDFFQRECYAIPYGGELQFQTDYKGETKMAKKYSIRDIKDIYAKVVRKGDEFKEEIVAGQQVVDFKPLPFNDAEIIGAFAVVLYQDGGMEYETMSTKQIEGIRDNFSKMKNGLMWTKTPEEAYKKTVLRRLTKKIEKDFASIDQAKAYEESSDMQFKQDEQKQDAKDPFADAVDVEFTEETEGQVRLDGEADGAK
# B10: SSAP_163: SEQ ID NO: 332; Clostridium sp. Marseille-P3244 (protein, listed as Clostridium sp.)
# chain: AARATNSVKEELAKKAETKAVGEKKLTRSMSIADLIKAMAPEIKKALPEVITPERFTRMALSALNTTPKLQECTQMSFLAALMNAAQLGLEPNTPLGQAYLIPFNNKGTMECQFQIGYKGLIDLGYRNPQMQIISAQAVYENDEFEYELGLNPKLEHRPALHDRGELRLFYGLFKLVNGGFGFEVMSKEAVDAYAKEYSKSFDSSFSPWKTNYEAMAKKTVIKQALKYAPIKADFRKALSTDETIKNEIAEDMSEIHGEDIFDAEYTEQTA
# B11: SSAP_51: SEQ ID NO: 220 (protein)
# chain: AENEKQALLQEENKSENVVSTVKRTALATNPFSDTDQFNNIFKMAQLISQSDMIPATYKGKPMNCVIALEQANRMGVSPLMVMQNLYVVKGVPSWSGQGCMMIIQGCGKFRDVDYVYSGEKGTDSRSCKVVATRISDGKRIEGTEITMQMVKSEGWISNTKWKNMPEQMLGYRAATFFARMYCPNELNGFATEGEAEDMNHKPQRIEAINVLGDTAHE
# B12: SSAP_273: SEQ ID NO: 442; Virgibacillus (multispecies) (protein, listed as Virgibacillus sp.)
# chain: ATNDSVKNQIANKNQGSNQVNPNNLGLKQLLSTPTMRKKFDEVLDKKAPQFMSSLLNLYSNDSYLQKAEPMSVVTSALVAATLDLPIDKNLGYAWIVPYGGKAQFQLGYKGYIQLALRTGQYRNINVIEVYEGELKSFNRLTEEMELDFEQKQSDKVIGYTGYFELINGFRKTVYWSKEEIEKHKKRFSKSDFGWKKDWDAMAKKTVIRNMLNKWGILSIDMQKGIVEDNKDPIEKANEFDEQDIIEADFSEVNDDQEIDFSDAQ
# How the values were obtained:
# Type in all cases: cell-based
# gene editing with Cas9 = assay: Screen of 322 new SSAP proteins, gene editing activity with Cas9 (Table 5); parameters: Cas9 with SSAP activity: scale not given here
# Excerpt: (§1) 322 new SSAP proteins were identified from sequence data, synthesized, and screened for activity with Cas9 and dCas9. Gene editing activities are shown below in Table 5, followed by amino acid sequences of the proteins.
# gene editing with dCas9 = assay: Screen of 322 new SSAP proteins, gene editing activity with dCas9 (Table 5); parameters: dCas9 with SSAP activity: scale not given here
# Excerpt: as §1
# [1] = system: gene editing with Cas9 and dCas9; assay: Screen of 322 new SSAP proteins, activity across all experiments (Cas9 and dCas9, Table 5); parameters: scale not given here
# Excerpt: as §1
Molecule,Cas9 with SSAP activity (gene editing with Cas9),Cas9 with SSAP activity (normalized) (gene editing with Cas9),dCas9 with SSAP activity (gene editing with dCas9),dCas9 with SSAP activity (normalized) (gene editing with dCas9),Activity across all experiments [1]
LambdaBet (MSTALATLAGKLAERVGMDSVDPQELITTLRQTAFKGDASDAQFIALLI),−4.490,−0.856,−2.737,−0.416,−3.613
B1,−1.578,−0.629,−3.063,−2.608,−2.321
B2,−7.323,−1.345,−3.318,−0.536,−5.320
B3,−0.802,−0.382,−2.961,−0.450,−1.882
B4,−3.728,−3.241,−3.134,−3.818,−3.431
B5,−1.322,−0.932,−3.288,−0.449,−2.305
B6,−3.033,−0.543,−3.279,−0.575,−3.156
B7,−0.020,−0.011,−3.325,−0.539,−1.672
B8,−0.932,−0.510,−3.182,−0.478,−2.057
B9,0.596,1.140,−2.950,−0.446,−1.177
B10,1.362,1.914,−2.847,−0.374,−0.742
B11,−0.124,−0.406,−2.900,−0.907,−1.512
B12,−1.654,−0.724,1.896,2.101,0.121
